T1: SmMYB113 (Solanum melongena, UniProt A0A0A0QP33 1-256)
T1 sequence: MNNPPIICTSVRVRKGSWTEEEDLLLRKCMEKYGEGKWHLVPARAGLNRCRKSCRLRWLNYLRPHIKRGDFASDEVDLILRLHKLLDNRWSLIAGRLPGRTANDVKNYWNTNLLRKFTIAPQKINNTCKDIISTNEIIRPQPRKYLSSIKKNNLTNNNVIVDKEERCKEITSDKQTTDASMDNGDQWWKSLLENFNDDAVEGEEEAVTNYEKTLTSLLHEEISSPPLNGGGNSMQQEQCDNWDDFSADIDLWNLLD

B1: SmMATE probe (dsDNA)
DNA 1: AACAATTGCTATAACTACAGTTAGGGAATGCAATTACCG
DNA 2: CGGTAATTGCATTCCCTAACTGTAGTTATAGCAATTGTT
B2: SmF3'5'M probe (dsDNA)
DNA 1: TTTTTTTTTTGCTTAGACAACTGGCAAGGATTTTACTAA
DNA 2: TTAGTAAAATCCTTGCCAGTTGTCTAAGCAAAAAAAAAA
B3: SmASAT3 probe (dsDNA)
DNA 1: TTGGTTTTTATGGGCACAGTTGCTACTATGGGTGAATA
DNA 2: TATTCACCCATAGTAGCAACTGTGCCCATAAAAACCAA
B4: SmCytb5 probe (dsDNA)
DNA 1: TCCAAGTTTTTTTCTTTGGTTGATAATTTTATCTAACG
DNA 2: CGTTAGATAAAATTATCAACCAAAGAAAAAAACTTGGA
B5: SmGST probe (dsDNA)
DNA 1: CAGACTTTCCACTCAACCACTGGTTGCTGCTCATCTTCA
DNA 2: TGAAGATGAGCAGCAACCAGTGGTTGAGTGGAAAGTCTG

Biological target: T1, SmMYB113
Assay: EMSA; EMSA per manufacturer's instructions (Thermo Pierce); buffer, salt, pH and temperature not stated; unlabeled competitor 10x, 30x, 100x
Settings: protein: recombinant; tags: His (pET32a fusion); label: biotin; blunt

Binding result, binds:
B1, B2, B3, B4, B5

Source: publication PMC10599318, “RNA-sequencing analysis reveals novel genes involved in the different peel color formation in eggplant”
